Measured values: US20100047170

Experiments:
[1] = system: DQ Gelatin from pig skin, fluorescein conjugate (Invitrogen)
[2] = target: DQ Bovine Serum Albumin, fluorescent quenched (UniProt P02769)
[3] = target: DQ collagen, type I from bovine skin, fluorescein conjugate (Invitrogen) (UniProt P02453)
[4] = system: DQ collagen, type IV from human placenta, fluorescein conjugate (Invitrogen)

Measured: hydrolysis of FITC-quenched protein (fluorescence increase)

DQ Bovine Serum Albumin, fluorescent quenched, sequence (P02769 25-607): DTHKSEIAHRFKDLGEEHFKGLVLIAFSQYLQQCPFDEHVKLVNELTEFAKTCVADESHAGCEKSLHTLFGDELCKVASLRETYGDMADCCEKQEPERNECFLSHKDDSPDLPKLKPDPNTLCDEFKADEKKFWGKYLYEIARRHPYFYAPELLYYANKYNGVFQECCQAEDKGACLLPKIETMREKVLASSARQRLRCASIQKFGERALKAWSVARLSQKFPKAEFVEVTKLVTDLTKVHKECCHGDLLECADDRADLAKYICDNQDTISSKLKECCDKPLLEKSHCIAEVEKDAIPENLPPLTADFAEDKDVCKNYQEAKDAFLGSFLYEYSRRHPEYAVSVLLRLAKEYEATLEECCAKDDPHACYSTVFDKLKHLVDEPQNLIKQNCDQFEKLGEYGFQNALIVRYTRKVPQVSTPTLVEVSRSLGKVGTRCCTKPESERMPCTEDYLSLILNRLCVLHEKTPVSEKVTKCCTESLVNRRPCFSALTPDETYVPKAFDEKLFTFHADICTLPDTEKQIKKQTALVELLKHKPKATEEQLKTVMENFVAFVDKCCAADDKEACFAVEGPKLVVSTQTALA
DQ collagen, type I from bovine skin, fluorescein conjugate (Invitrogen), sequence (P02453 162-1217, chain 1 of 2): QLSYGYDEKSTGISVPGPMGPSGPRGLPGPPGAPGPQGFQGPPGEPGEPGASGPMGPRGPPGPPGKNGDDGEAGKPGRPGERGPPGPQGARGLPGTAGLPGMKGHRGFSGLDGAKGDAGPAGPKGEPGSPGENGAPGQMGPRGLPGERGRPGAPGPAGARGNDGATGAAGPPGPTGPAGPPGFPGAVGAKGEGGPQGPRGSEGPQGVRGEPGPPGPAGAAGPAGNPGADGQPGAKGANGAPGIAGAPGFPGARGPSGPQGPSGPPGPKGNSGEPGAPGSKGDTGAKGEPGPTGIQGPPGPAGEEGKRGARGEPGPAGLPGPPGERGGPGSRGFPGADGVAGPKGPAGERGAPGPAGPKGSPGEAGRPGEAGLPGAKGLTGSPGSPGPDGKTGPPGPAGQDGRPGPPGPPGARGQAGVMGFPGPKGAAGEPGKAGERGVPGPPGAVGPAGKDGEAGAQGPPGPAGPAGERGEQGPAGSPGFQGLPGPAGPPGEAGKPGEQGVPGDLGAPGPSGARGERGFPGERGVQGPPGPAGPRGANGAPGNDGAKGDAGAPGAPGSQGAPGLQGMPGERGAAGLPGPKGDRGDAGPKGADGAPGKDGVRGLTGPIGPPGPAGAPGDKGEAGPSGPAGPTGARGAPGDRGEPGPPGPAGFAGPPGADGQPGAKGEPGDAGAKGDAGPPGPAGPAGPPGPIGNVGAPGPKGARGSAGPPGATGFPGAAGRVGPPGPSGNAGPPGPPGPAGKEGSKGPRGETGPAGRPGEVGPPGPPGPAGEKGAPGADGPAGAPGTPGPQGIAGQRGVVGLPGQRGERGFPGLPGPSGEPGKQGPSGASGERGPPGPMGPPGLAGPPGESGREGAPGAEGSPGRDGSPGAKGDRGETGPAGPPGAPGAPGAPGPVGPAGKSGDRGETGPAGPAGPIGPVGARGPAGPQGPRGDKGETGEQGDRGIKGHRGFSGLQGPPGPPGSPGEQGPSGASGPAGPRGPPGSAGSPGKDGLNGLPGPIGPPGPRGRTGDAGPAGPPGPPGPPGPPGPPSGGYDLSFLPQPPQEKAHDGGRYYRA
DQ collagen, type I from bovine skin, fluorescein conjugate (Invitrogen), sequence (P02453 other isoform, or with tags, fused parts or gaps, chain 2 of 2): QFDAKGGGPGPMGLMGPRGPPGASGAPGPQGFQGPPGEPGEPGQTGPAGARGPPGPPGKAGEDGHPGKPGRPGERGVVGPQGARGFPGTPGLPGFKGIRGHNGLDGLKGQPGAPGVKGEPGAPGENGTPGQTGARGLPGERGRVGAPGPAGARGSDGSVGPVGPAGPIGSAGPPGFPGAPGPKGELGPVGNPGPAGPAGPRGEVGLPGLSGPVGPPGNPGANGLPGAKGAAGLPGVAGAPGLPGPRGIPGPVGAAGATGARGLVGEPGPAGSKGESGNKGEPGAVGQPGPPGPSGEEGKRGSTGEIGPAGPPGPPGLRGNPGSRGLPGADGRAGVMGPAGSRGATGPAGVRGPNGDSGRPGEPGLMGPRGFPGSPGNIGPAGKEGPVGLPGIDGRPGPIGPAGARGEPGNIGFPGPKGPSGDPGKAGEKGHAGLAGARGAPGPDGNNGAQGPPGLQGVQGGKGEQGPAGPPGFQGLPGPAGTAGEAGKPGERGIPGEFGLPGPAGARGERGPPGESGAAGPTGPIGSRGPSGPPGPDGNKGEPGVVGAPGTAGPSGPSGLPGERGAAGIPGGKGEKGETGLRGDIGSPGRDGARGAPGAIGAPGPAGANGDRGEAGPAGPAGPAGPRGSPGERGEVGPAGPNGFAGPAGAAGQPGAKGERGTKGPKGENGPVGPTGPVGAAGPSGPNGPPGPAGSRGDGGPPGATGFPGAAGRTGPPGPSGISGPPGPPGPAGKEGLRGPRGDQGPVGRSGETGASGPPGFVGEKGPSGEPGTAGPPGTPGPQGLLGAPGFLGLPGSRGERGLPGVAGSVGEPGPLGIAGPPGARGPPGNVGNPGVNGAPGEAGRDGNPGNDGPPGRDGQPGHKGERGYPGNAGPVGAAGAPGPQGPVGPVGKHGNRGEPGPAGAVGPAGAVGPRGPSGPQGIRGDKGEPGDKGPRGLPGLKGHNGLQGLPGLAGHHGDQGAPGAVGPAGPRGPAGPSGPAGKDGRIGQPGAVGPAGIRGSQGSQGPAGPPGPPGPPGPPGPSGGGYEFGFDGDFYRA

His tagged extra cellular domain of Prostate Specific Membrane Antigen (PSMA), purified from S2 cells
no digestion of any of the proteins: all assays above
